# Results: the supplement of paper PMC9112550, “Optimization of the antimicrobial peptide Bac7 by deep mutational scanning” (BMC Biology, 2022)
# Tested on: Escherichia coli TOP10
# Assay: shrunken log2 fold change of peptide-encoding DNA abundance (4.5 h post-induction vs induction); higher = less antimicrobial activity (less host growth inhibition)
# Conditions: time post-induction: 4.5 h; library: site-saturation at positions 5, 18, 19, 20
# 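Also: peptides expressed intracellularly from a pBAD plasmid library in pooled LB shake-flask culture, induced with 0.3% L-arabinose, DNA abundance read by NGS, three biological replicates, DESeq2 with apeglm shrinkage.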
row,Sequence,shrunken log2 fold change
1,RRIRVRPPRLPRPRPRPSSRPRP,-0.231
2,RRIRGRPPRLPRPRPRPSDRPRP,0.137
3,RRIRTRPPRLPRPRPRPWTLPRP,-0.0728
4,RRIRERPPRLPRPRPRPCQCPRP,-0.0543
5,RRIRCRPPRLPRPRPRPFLDPRP,-0.0521
6,RRIRDRPPRLPRPRPRPGQRPRP,0.0563
7,RRIRRRPPRLPRPRPRPATCPRP,0.161
8,RRIRGRPPRLPRPRPRPYWGPRP,0.198
9,RRIRCRPPRLPRPRPRPIFWPRP,0.235
10,RRIRCRPPRLPRPRPRPANSPRP,-0.685
11,RRIRKRPPRLPRPRPRPCKLPRP,-0.144
12,RRIRDRPPRLPRPRPRPGESPRP,-0.00997
13,RRIRKRPPRLPRPRPRPNPIPRP,0.0804
14,RRIRWRPPRLPRPRPRPRCSPRP,0.362
15,RRIRYRPPRLPRPRPRPFVLPRP,-0.855
16,RRIRHRPPRLPRPRPRPSYIPRP,-1.77
17,RRIRARPPRLPRPRPRPMIWPRP,0.415
18,RRIRHRPPRLPRPRPRPWKWPRP,-0.00968
19,RRIRLRPPRLPRPRPRPIMNPRP,-0.381
20,RRIRSRPPRLPRPRPRPGHAPRP,0.205
21,RRIRRRPPRLPRPRPRPLSEPRP,0.382
22,RRIRERPPRLPRPRPRPAHQPRP,-0.136
23,RRIRRRPPRLPRPRPRPAVQPRP,0.0814
24,RRIRVRPPRLPRPRPRPMNPPRP,-0.421
25,RRIRMRPPRLPRPRPRPGQYPRP,-0.00987

row,Sequence,shrunken log2 fold change
1,RRIRYRPPRLPRPRPRPPPKPRP,1.24
2,RRIRYRPPRLPRPRPRPIHNPRP,-0.438
3,RRIRYRPPRLPRPRPRPGDQPRP,0.0121
4,RRIRTRPPRLPRPRPRPQIMPRP,-0.337
5,RRIRVRPPRLPRPRPRPNSHPRP,-0.402
6,RRIRKRPPRLPRPRPRPARAPRP,0.739
7,RRIRDRPPRLPRPRPRPHPCPRP,0.0731
8,RRIRSRPPRLPRPRPRPQRVPRP,-0.00684
9,RRIRWRPPRLPRPRPRPWCIPRP,-0.225
10,RRIRFRPPRLPRPRPRPYAQPRP,-0.533
11,RRIRFRPPRLPRPRPRPMSRPRP,0.0534
12,RRIRVRPPRLPRPRPRPMTNPRP,-0.256
13,RRIRPRPPRLPRPRPRPKMAPRP,-0.0597
14,RRIRSRPPRLPRPRPRPGADPRP,0.463
15,RRIRTRPPRLPRPRPRPTIRPRP,-0.0471
16,RRIRQRPPRLPRPRPRPPHQPRP,0.363
17,RRIRNRPPRLPRPRPRPGWIPRP,-0.265
18,RRIRDRPPRLPRPRPRPDWVPRP,0.0881
19,RRIRRRPPRLPRPRPRPCWSPRP,-0.0452
20,RRIRARPPRLPRPRPRPNFQPRP,-0.0343
21,RRIRPRPPRLPRPRPRPNWTPRP,0.218
22,RRIRERPPRLPRPRPRPRIWPRP,0.143
23,RRIRFRPPRLPRPRPRPEMDPRP,-0.00136
24,RRIRQRPPRLPRPRPRPGFKPRP,-0.534
25,RRIRLRPPRLPRPRPRPYQHPRP,-0.661

row,Sequence,shrunken log2 fold change
1,RRIRLRPPRLPRPRPRPYMTPRP,-0.82
2,RRIRKRPPRLPRPRPRPIWYPRP,-0.26
3,RRIRPRPPRLPRPRPRPAKKPRP,0.0429
4,RRIRDRPPRLPRPRPRPNCMPRP,0.111
5,RRIRSRPPRLPRPRPRPSMHPRP,0.402
6,RRIRCRPPRLPRPRPRPLMDPRP,-0.256
7,RRIRPRPPRLPRPRPRPRCSPRP,0.00477
8,RRIRERPPRLPRPRPRPFELPRP,-0.0731
9,RRIRGRPPRLPRPRPRPAINPRP,0.419
10,RRIRWRPPRLPRPRPRPKIHPRP,-0.23
11,RRIRIRPPRLPRPRPRPPPIPRP,0.141
12,RRIRCRPPRLPRPRPRPYYFPRP,-1.08
13,RRIRFRPPRLPRPRPRPCDYPRP,-0.112
14,RRIRWRPPRLPRPRPRPCAWPRP,0.0191
15,RRIRLRPPRLPRPRPRPFKMPRP,-0.388
16,RRIRYRPPRLPRPRPRPTIHPRP,-1.2
17,RRIRNRPPRLPRPRPRPLSGPRP,0.0992
18,RRIRYRPPRLPRPRPRPDAYPRP,-0.599
19,RRIRVRPPRLPRPRPRPIQYPRP,0.0111
20,RRIRVRPPRLPRPRPRPAALPRP,0.0637
21,RRIRFRPPRLPRPRPRPHPAPRP,0.0971
22,RRIRWRPPRLPRPRPRPCPTPRP,0.0714
23,RRIRLRPPRLPRPRPRPIAGPRP,-0.086
24,RRIRFRPPRLPRPRPRPTIPPRP,-0.562
25,RRIRNRPPRLPRPRPRPRTEPRP,-0.279

row,Sequence,shrunken log2 fold change
1,RRIRHRPPRLPRPRPRPLVKPRP,-0.29
2,RRIRSRPPRLPRPRPRPSFAPRP,0.0497
3,RRIRTRPPRLPRPRPRPSKVPRP,-0.0295
4,RRIRWRPPRLPRPRPRPIVEPRP,0.127
5,RRIRHRPPRLPRPRPRPHICPRP,-0.259
6,RRIRYRPPRLPRPRPRPMKIPRP,-0.0574
7,RRIRTRPPRLPRPRPRPDATPRP,0.823
8,RRIRSRPPRLPRPRPRPHGVPRP,0.013
9,RRIRGRPPRLPRPRPRPRGWPRP,1.68
10,RRIRGRPPRLPRPRPRPTTVPRP,0.368
11,RRIRNRPPRLPRPRPRPYTIPRP,-0.138
12,RRIRARPPRLPRPRPRPRDFPRP,0.0137
13,RRIRIRPPRLPRPRPRPNSPPRP,0.00971
14,RRIRHRPPRLPRPRPRPPMSPRP,0.0891
15,RRIRIRPPRLPRPRPRPDWYPRP,-0.842
16,RRIRLRPPRLPRPRPRPNGYPRP,-0.315
17,RRIRSRPPRLPRPRPRPWLMPRP,-0.156
18,RRIRYRPPRLPRPRPRPCTVPRP,-0.0835
19,RRIRIRPPRLPRPRPRPSHPPRP,-0.245
20,RRIRDRPPRLPRPRPRPWNWPRP,0.0868
21,RRIRCRPPRLPRPRPRPIYVPRP,-0.447
22,RRIRCRPPRLPRPRPRPSLDPRP,-0.203
23,RRIRGRPPRLPRPRPRPQNRPRP,0.0342
24,RRIRLRPPRLPRPRPRPLINPRP,-0.519
25,RRIRGRPPRLPRPRPRPVWAPRP,0.591

row,Sequence,shrunken log2 fold change
1,RRIRLRPPRLPRPRPRPTCWPRP,0.393
2,RRIRWRPPRLPRPRPRPPCWPRP,0.347
3,RRIRYRPPRLPRPRPRPIFRPRP,-0.258
4,RRIRSRPPRLPRPRPRPSDFPRP,-0.536
5,RRIRIRPPRLPRPRPRPCKIPRP,-0.293
6,RRIRMRPPRLPRPRPRPGCNPRP,0.00293
7,RRIRERPPRLPRPRPRPYVAPRP,-0.72
8,RRIRHRPPRLPRPRPRPSALPRP,-0.243
9,RRIRLRPPRLPRPRPRPWIDPRP,-0.0305
10,RRIRARPPRLPRPRPRPGYSPRP,-0.35
11,RRIRWRPPRLPRPRPRPNHNPRP,-0.681
12,RRIRWRPPRLPRPRPRPFVFPRP,-0.0764
13,RRIRNRPPRLPRPRPRPEHTPRP,-0.0129
14,RRIRDRPPRLPRPRPRPRELPRP,0.0713
15,RRIRKRPPRLPRPRPRPCCYPRP,0.0681
16,RRIRYRPPRLPRPRPRPDYEPRP,-0.105
17,RRIRTRPPRLPRPRPRPLWDPRP,-0.0109
18,RRIRNRPPRLPRPRPRPGYGPRP,-0.0142
19,RRIRLRPPRLPRPRPRPCEKPRP,-0.00674
20,RRIRIRPPRLPRPRPRPMHGPRP,-0.216
21,RRIRRRPPRLPRPRPRPLYEPRP,-0.0905
22,RRIRYRPPRLPRPRPRPMRSPRP,-0.0201
23,RRIRPRPPRLPRPRPRPNSVPRP,-0.174
24,RRIRRRPPRLPRPRPRPHHGPRP,-0.249
25,RRIRHRPPRLPRPRPRPHCCPRP,-0.156

row,Sequence,shrunken log2 fold change
1,RRIRSRPPRLPRPRPRPQATPRP,-0.107
2,RRIRDRPPRLPRPRPRPFYWPRP,-0.0675
3,RRIRPRPPRLPRPRPRPENDPRP,-0.0164
4,RRIRERPPRLPRPRPRPQSKPRP,-0.769
5,RRIRGRPPRLPRPRPRPKRKPRP,0.835
6,RRIRHRPPRLPRPRPRPWNHPRP,-0.0561
7,RRIRIRPPRLPRPRPRPVCAPRP,-0.0399
8,RRIRCRPPRLPRPRPRPHNGPRP,-1.03
9,RRIRTRPPRLPRPRPRPQVKPRP,-0.0733
10,RRIRTRPPRLPRPRPRPPMMPRP,-0.121
11,RRIRLRPPRLPRPRPRPHDYPRP,-0.398
12,RRIRRRPPRLPRPRPRPNKGPRP,0.128
13,RRIRNRPPRLPRPRPRPMGCPRP,-0.187
14,RRIRYRPPRLPRPRPRPKFFPRP,0.131
15,RRIRFRPPRLPRPRPRPMPAPRP,0.283
16,RRIRHRPPRLPRPRPRPLSHPRP,-0.00358
17,RRIRLRPPRLPRPRPRPGFRPRP,0.0673
18,RRIRDRPPRLPRPRPRPAWLPRP,0.266
19,RRIRTRPPRLPRPRPRPGSQPRP,0.0756
20,RRIRCRPPRLPRPRPRPKKHPRP,-0.217
21,RRIRNRPPRLPRPRPRPLAYPRP,-0.175
22,RRIRDRPPRLPRPRPRPSDPPRP,-0.0499
23,RRIRARPPRLPRPRPRPQKTPRP,0.0194
24,RRIRARPPRLPRPRPRPFHFPRP,-0.25
25,RRIRVRPPRLPRPRPRPAGNPRP,0.141
